{"source": "patent US9249224B2", "about": "(RINAT NEUROSCIENCE CORP., priority 2011, dated 2016)", "molecules": {"B1": {"name": "SS1: humanized GHR antagonist antibody; VL SEQ ID NO: 7, VH SEQ ID NO: 8; hIgG2Δa heavy chain SEQ ID NO: 134, light chain SEQ ID NO: 135 (antibody)", "heavy": "EVQLVESGGGLVKPGGSLRLSCAASGFTFSDAWMDWVRQAPGKGLEWVAEIRSKANYHATYYAESVKGRFTISRDDSKNTLYLQMNSLKTEDTAVYYCTLIRDYWGQGTLVTVSSASTKGPSVFPLAPCSRSTSESTAALGCLVKDYFPEPVTVSWNSGALTSGVHTFPAVLQSSGLYSLSSVVTVPSSNFGTQTYTCNVDHKPSNTKVDKTVERKCCVECPPCPAPPVAGPSVFLFPPKPKDTLMISRTPEVTCVVVDVSHEDPEVQFNWYVDGVEVHNAKTKPREEQFNSTFRVVSVLTVVHQDWLNGKEYKCKVSNKGLPSSIEKTISKTKGQPREPQVYTLPPSREEMTKNQVSLTCLVKGFYPSDIAVEWESNGQPENNYKTTPPMLDSDGSFFLYSKLTVDKSRWQQGNVFSCSVMHEALHNHYTQKSLSLSPGK", "light": "EIVLTQSPGTLSLSPGERATLSCTATSSVSSSYLNWYQQKPGQAPRLLIYSTSNLASGIPDRFSGSGSGTDFTLTISRLEPEDFAVYYCHQYHRSTPTFGGGTKVEIKRTVAAPSVFIFPPSDEQLKSGTASVVCLLNNFYPREAKVQWKVDNALQSGNSQESVTEQDSKDSTYSLSSTLTLSKADYEKHKVYACEVTHQGLSSPVTKSFNRGEC", "modifications": "Humanized and/or affinity matured antibody sequence"}}, "system": "IGF-1", "experiment": "Serum IGF-1 levels in cynomolgus monkeys after a single antibody dose", "assay_type": "in vivo, cynomolgus monkey", "protocol": "Serum samples were analyzed for changes in IGF-1 levels compared to baseline using an R&D Systems™ Quantikine™ human IGF-1 immunoassay kit (cat. #DG100).\nTo determine if GHR antagonist monoclonal antibodies can affect IGF-1, IGFBP-3, and ALS levels in vivo by inhibiting the function of GHR, the effect of humanized anti-human GHR antibody SS1 was tested in cynomolgus monkeys. A dose-response study was conducted to test for changes in IGF-1, IGFBP-3, and ALS levels following a single dose of SS1. Eight naïve female cynomolgus monkeys were injected intravenously with a single dose of SS1 or negative control human IgG2, in 1×PBS 0.01% Tween™ 20. Two monkeys were dosed with 30 mg/kg SS1, two were dosed with 10 mg/kg SS1, two were dosed with 3 mg/kg SS1, and two were dosed with 30 mg/kg negative control human IgG2Δa on Day 1. Serum samples were taken from all animals at the following timepoints: pre-dose, 24 h, 48 h, 72 h, 120 h, 144 h, 192 h, 240 h, 336 h, 528 h, 696 h. Serum was also taken from the 30 mg/kg SS1 and negative control treated animals at 864 h post-dose.\nSix naïve female cynomolgus monkeys were injected either intravenously or subcutaneously with a single dose of […] or negative control human IgG2Δa in 1×PBS 0.01% Tween™ 20. Two monkeys were dosed with 3 mg/kg SS1 intravenously, two were dosed with 3 mg/kg SS1 subcutaneously, and two were dosed with 3 mg/kg negative control human IgG2Δa subcutaneously on Day 1. Serum samples were taken from all animals at the following timepoints: pre-dose, 24 h, 72 h, 120 h, 168 h, 216 h, 264 h, 312 h, 360 h, 408 h, 456 h and 504 h."}
{"molecule": "B1", "values": [{"measurement": "serum IGF-1 levels (% change from baseline)", "setting": "Table 10, cynomolgus monkeys, SS1 3 mg/kg IV single dose, 24 h post-injection", "value": "−43.6 +/− 0.5%"}, {"measurement": "serum IGF-1 levels (% change from baseline)", "setting": "Table 10, cynomolgus monkeys, SS1 3 mg/kg IV single dose, 48 h post-injection", "value": "−66.6 +/− 1.1%"}, {"measurement": "serum IGF-1 levels (% change from baseline)", "setting": "Table 10, cynomolgus monkeys, SS1 3 mg/kg IV single dose, 72 h post-injection", "value": "−67.1 +/− 1.6%"}, {"measurement": "serum IGF-1 levels (% change from baseline)", "setting": "Table 10, cynomolgus monkeys, SS1 3 mg/kg IV single dose, 120 h post-injection", "value": "−76.2 +/− 7.9%"}, {"measurement": "serum IGF-1 levels (% change from baseline)", "setting": "Table 10, cynomolgus monkeys, SS1 3 mg/kg IV single dose, 144 h post-injection", "value": "−68.4 +/− 1.1%"}, {"measurement": "serum IGF-1 levels (% change from baseline)", "setting": "Table 10, cynomolgus monkeys, SS1 3 mg/kg IV single dose, 192 h post-injection", "value": "−65.2 +/− 3.0%"}, {"measurement": "serum IGF-1 levels (% change from baseline)", "setting": "Table 10, cynomolgus monkeys, SS1 3 mg/kg IV single dose, 240 h post-injection", "value": "−34.5 +/− 17.8%"}, {"measurement": "serum IGF-1 levels (% change from baseline)", "setting": "Table 10, cynomolgus monkeys, SS1 3 mg/kg IV single dose, 336 h post-injection", "value": "64.2 +/− 0.6%"}, {"measurement": "serum IGF-1 levels (% change from baseline)", "setting": "Table 10, cynomolgus monkeys, SS1 3 mg/kg IV single dose, 528 h post-injection", "value": "85.1 +/− 46.0%"}, {"measurement": "serum IGF-1 levels (% change from baseline)", "setting": "Table 10, cynomolgus monkeys, SS1 3 mg/kg IV single dose, 696 h post-injection", "value": "49.2 +/− 11.3%"}, {"measurement": "serum IGF-1 levels (% change from baseline)", "setting": "Table 10, cynomolgus monkeys, SS1 10 mg/kg IV single dose, 24 h post-injection", "value": "−43.4 +/− 2.2%"}, {"measurement": "serum IGF-1 levels (% change from baseline)", "setting": "Table 10, cynomolgus monkeys, SS1 10 mg/kg IV single dose, 48 h post-injection", "value": "−62.6 +/− 5.5%"}, {"measurement": "serum IGF-1 levels (% change from baseline)", "setting": "Table 10, cynomolgus monkeys, SS1 10 mg/kg IV single dose, 72 h post-injection", "value": "−67.1 +/− 4.7%"}, {"measurement": "serum IGF-1 levels (% change from baseline)", "setting": "Table 10, cynomolgus monkeys, SS1 10 mg/kg IV single dose, 120 h post-injection", "value": "−73.5 +/− 2.1%"}, {"measurement": "serum IGF-1 levels (% change from baseline)", "setting": "Table 10, cynomolgus monkeys, SS1 10 mg/kg IV single dose, 144 h post-injection", "value": "−76.0 +/− 0.1%"}, {"measurement": "serum IGF-1 levels (% change from baseline)", "setting": "Table 10, cynomolgus monkeys, SS1 10 mg/kg IV single dose, 192 h post-injection", "value": "−74.0 +/− 0.2%"}, {"measurement": "serum IGF-1 levels (% change from baseline)", "setting": "Table 10, cynomolgus monkeys, SS1 10 mg/kg IV single dose, 240 h post-injection", "value": "−70.9 +/− 1.9%"}, {"measurement": "serum IGF-1 levels (% change from baseline)", "setting": "Table 10, cynomolgus monkeys, SS1 10 mg/kg IV single dose, 336 h post-injection", "value": "−61.4 +/− 0.6%"}, {"measurement": "serum IGF-1 levels (% change from baseline)", "setting": "Table 10, cynomolgus monkeys, SS1 10 mg/kg IV single dose, 528 h post-injection", "value": "25.7 +/− 11.8%"}, {"measurement": "serum IGF-1 levels (% change from baseline)", "setting": "Table 10, cynomolgus monkeys, SS1 10 mg/kg IV single dose, 696 h post-injection", "value": "31.7 +/− 15.2%"}, {"measurement": "serum IGF-1 levels (% change from baseline)", "setting": "Table 10, cynomolgus monkeys, SS1 30 mg/kg IV single dose, 24 h post-injection", "value": "−43.2 +/− 3.0%"}, {"measurement": "serum IGF-1 levels (% change from baseline)", "setting": "Table 10, cynomolgus monkeys, SS1 30 mg/kg IV single dose, 48 h post-injection", "value": "−63.2 +/− 5.0%"}, {"measurement": "serum IGF-1 levels (% change from baseline)", "setting": "Table 10, cynomolgus monkeys, SS1 30 mg/kg IV single dose, 72 h post-injection", "value": "−68.5 +/− 5.8%"}, {"measurement": "serum IGF-1 levels (% change from baseline)", "setting": "Table 10, cynomolgus monkeys, SS1 30 mg/kg IV single dose, 120 h post-injection", "value": "−75.2 +/− 5.2%"}, {"measurement": "serum IGF-1 levels (% change from baseline)", "setting": "Table 10, cynomolgus monkeys, SS1 30 mg/kg IV single dose, 144 h post-injection", "value": "−77.5 +/− 5.6%"}, {"measurement": "serum IGF-1 levels (% change from baseline)", "setting": "Table 10, cynomolgus monkeys, SS1 30 mg/kg IV single dose, 192 h post-injection", "value": "−77.2 +/− 3.3%"}, {"measurement": "serum IGF-1 levels (% change from baseline)", "setting": "Table 10, cynomolgus monkeys, SS1 30 mg/kg IV single dose, 240 h post-injection", "value": "−74.8 +/− 3.4%"}, {"measurement": "serum IGF-1 levels (% change from baseline)", "setting": "Table 10, cynomolgus monkeys, SS1 30 mg/kg IV single dose, 336 h post-injection", "value": "−73.3 +/− 0.7%"}, {"measurement": "serum IGF-1 levels (% change from baseline)", "setting": "Table 10, cynomolgus monkeys, SS1 30 mg/kg IV single dose, 528 h post-injection", "value": "−73.0 +/− 0.9%"}, {"measurement": "serum IGF-1 levels (% change from baseline)", "setting": "Table 10, cynomolgus monkeys, SS1 30 mg/kg IV single dose, 696 h post-injection", "value": "−70.4 +/− 1.1%"}, {"measurement": "serum IGF-1 levels (% change from baseline)", "setting": "Table 10, cynomolgus monkeys, SS1 30 mg/kg IV single dose, 864 h post-injection", "value": "−8.8 +/− 2.9%"}, {"measurement": "serum IGF-1 levels (% change from baseline)", "setting": "Table 13, cynomolgus monkeys, SS1 3 mg/kg IV single dose, 24 hour post-injection", "value": "−35 +/− 4.4%"}, {"measurement": "serum IGF-1 levels (% change from baseline)", "setting": "Table 13, cynomolgus monkeys, SS1 3 mg/kg IV single dose, 72 hour post-injection", "value": "−64.8 +/− 2.7%"}, {"measurement": "serum IGF-1 levels (% change from baseline)", "setting": "Table 13, cynomolgus monkeys, SS1 3 mg/kg IV single dose, 120 hour post-injection", "value": "−71.6 +/− 1.8%"}, {"measurement": "serum IGF-1 levels (% change from baseline)", "setting": "Table 13, cynomolgus monkeys, SS1 3 mg/kg IV single dose, 168 hour post-injection", "value": "−70.2 +/− 2.7%"}, {"measurement": "serum IGF-1 levels (% change from baseline)", "setting": "Table 13, cynomolgus monkeys, SS1 3 mg/kg IV single dose, 216 hour post-injection", "value": "−64.5", "unit": "%"}, {"measurement": "serum IGF-1 levels (% change from baseline)", "setting": "Table 13, cynomolgus monkeys, SS1 3 mg/kg IV single dose, 264 hour post-injection", "value": "−36.0", "unit": "%"}, {"measurement": "serum IGF-1 levels (% change from baseline)", "setting": "Table 13, cynomolgus monkeys, SS1 3 mg/kg IV single dose, 312 hour post-injection", "value": "−30.3", "unit": "%"}, {"measurement": "serum IGF-1 levels (% change from baseline)", "setting": "Table 13, cynomolgus monkeys, SS1 3 mg/kg IV single dose, 360 hour post-injection", "value": "−27.8", "unit": "%"}, {"measurement": "serum IGF-1 levels (% change from baseline)", "setting": "Table 13, cynomolgus monkeys, SS1 3 mg/kg SQ single dose, 24 hour post-injection", "value": "−46.7 +/− 9.9%"}, {"measurement": "serum IGF-1 levels (% change from baseline)", "setting": "Table 13, cynomolgus monkeys, SS1 3 mg/kg SQ single dose, 72 hour post-injection", "value": "−62.5 +/− 2.5%"}, {"measurement": "serum IGF-1 levels (% change from baseline)", "setting": "Table 13, cynomolgus monkeys, SS1 3 mg/kg SQ single dose, 120 hour post-injection", "value": "−68.7 +/− 2.8%"}, {"measurement": "serum IGF-1 levels (% change from baseline)", "setting": "Table 13, cynomolgus monkeys, SS1 3 mg/kg SQ single dose, 168 hour post-injection", "value": "−65.6 +/− 4.1%"}, {"measurement": "serum IGF-1 levels (% change from baseline)", "setting": "Table 13, cynomolgus monkeys, SS1 3 mg/kg SQ single dose, 216 hour post-injection", "value": "−60.7", "unit": "%"}, {"measurement": "serum IGF-1 levels (% change from baseline)", "setting": "Table 13, cynomolgus monkeys, SS1 3 mg/kg SQ single dose, 264 hour post-injection", "value": "−40.9", "unit": "%"}, {"measurement": "serum IGF-1 levels (% change from baseline)", "setting": "Table 13, cynomolgus monkeys, SS1 3 mg/kg SQ single dose, 312 hour post-injection", "value": "−15.3", "unit": "%"}, {"measurement": "serum IGF-1 levels (% change from baseline)", "setting": "Table 13, cynomolgus monkeys, SS1 3 mg/kg SQ single dose, 360 hour post-injection", "value": "−4.2", "unit": "%"}, {"measurement": "time until which serum IGF-1 remained below 60% baseline levels", "setting": "cynomolgus monkeys, 3 mg/kg SS1 either SQ or IV", "value": "about 216 hour"}, {"measurement": "time until which serum IGF-1 remained substantially lower than baseline", "setting": "cynomolgus monkeys, SS1 3 mg/kg IV single dose", "value": 240, "unit": "h"}, {"measurement": "time until which serum IGF-1 remained substantially lower than baseline", "setting": "cynomolgus monkeys, SS1 10 mg/kg IV single dose", "value": 336, "unit": "h"}, {"measurement": "time until which serum IGF-1 remained substantially lower than baseline", "setting": "cynomolgus monkeys, SS1 30 mg/kg IV single dose", "value": 696, "unit": "h"}, {"measurement": "serum IGF-1 decrease below baseline levels", "setting": "cynomolgus monkeys, single IV dose of 3, 10 or 30 mg/kg SS1, by 120 hours", "value": "about 75%"}, {"measurement": "serum IGF-1 decrease below control", "setting": "cynomolgus monkeys, single dose 3 mg/kg SS1 subcutaneous (SC) or intravenous (IV), by 72 hours", "value": "about 63%"}, {"measurement": "effect on serum IGF-1 levels in cynomolgus monkeys", "setting": "single IV dose, dose-response", "value": "dose dependently reduces serum IGF-1 levels"}]}
